Test results taken from patent publication US20150344570A1 (published 2015).

T1: FcγRIIa H (human, UniProt P12318 34-217)
T1 construct: extracellular domain; also called FcγRIIa type H; 2aH
T1 sequence (looked up): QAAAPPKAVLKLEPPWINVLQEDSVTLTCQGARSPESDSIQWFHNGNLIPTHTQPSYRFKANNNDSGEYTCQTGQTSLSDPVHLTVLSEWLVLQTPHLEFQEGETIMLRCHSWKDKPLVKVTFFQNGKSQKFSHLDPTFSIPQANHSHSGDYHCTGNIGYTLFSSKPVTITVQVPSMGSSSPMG

T2: FcγRIIb (human, UniProt P31994 43-217)
T2 construct: extracellular domain; also called 2b; FcgRIIb
T2 sequence (looked up): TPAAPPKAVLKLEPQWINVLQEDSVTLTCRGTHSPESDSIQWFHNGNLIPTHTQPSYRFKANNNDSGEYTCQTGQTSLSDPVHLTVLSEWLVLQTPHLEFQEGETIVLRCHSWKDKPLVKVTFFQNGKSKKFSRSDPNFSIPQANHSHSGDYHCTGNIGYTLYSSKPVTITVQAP


Key:
FcγRIIa H [1] = molecular target: T1, FcγRIIa H; assay: ratio of He/Con_2aH to He/Con_2b (FcγRIIb); SPR
FcγRIIa H [2] = molecular target: T1, FcγRIIa H; assay: SPR (Biacore), captured antibody, FcγR as analyte; GpH7-A5/GpH7-B3/GpL16-k0 = 100
Method: (§1) The heterodimerized antibodies He Abs in which one of the H chains was introduced with an alteration were assayed for their binding activities to each activating FcγR and inhibitory FcγR according to the method described in Example 4. […] The activating FcγRs in FIGS. 26, 27, 28, and 29 are FcγRIa, FcγRIIa (R), FcγRIIa (H), and FcγRIIIa, respectively.
(§2) Analysis of interaction between objective antibody and the FcγR was carried out using Biacore T100 (GE Healthcare). HBS-EP+ (GE Healthcare) was used as the running buffer, and the measurement temperature was set to 25° C. Chips produced by immobilizing the antigen peptide by the amine coupling method to a Series S Sencor Chip CM5 (GE Healthcare), or alternatively, chips produced by allowing preliminarily biotinylated antigen peptides to interact with and immobilize onto a Series S Sensor Chip SA (certified) (GE Healthcare) were used. Antibodies of interest were captured onto an antigen peptide-immobilized chip, and allowed to interact to each FcγR diluted with running buffer. To regenerate and repeatedly use the chip, the antibodies captured on the chip were washed off by reacting 10 mM glycine-HCl, pH 1.5.

FcγRIIb = molecular target: T2, FcγRIIb; assay: as above
Method: as §1, §2

Binder | He_2aH/2b (IIaH/IIb ratio) (FcγRIIa H [1]) | He/Con_2aH (relative binding) (FcγRIIa H [2]) | He/Con_2b (relative binding) (FcγRIIb)
GpH7-A5/GpH7-B3 variant E269_18N/GpL16-k0 (antibody, human IgG1, kappa, Heterodimerized anti-glypican-3 IgG1 (He Ab); mutation in the B3 H chain only; also called He Ab) heavy 1: not shown heavy 2: not shown light: DIVMTQSPLSLPVTPGEPASISCQASESLVHSNRNTYLHWYLQKPGQSPQLLIYKVSNRFSGVPDRFSGSGSGTDFTLKISRVEAEDVGVYYCSQNTHVPPTFGQGTKVEIERTVAAPSVFIFPPSDEQLKSGTASVVCLLNNFYPREAKVQWKVDNALQSGNSQESVTEQDSKDSTYSLSSTLTLSKADYEKHKVYACEVTHQGLSSPVTKSFNRGEC | 1.44 | 64.4% | 44.8%
GpH7-A5/GpH7-B3 variant Q295_13S/GpL16-k0 (antibody, human IgG1, kappa, Heterodimerized anti-glypican-3 IgG1 (He Ab); mutation in the B3 H chain only; also called He Ab) heavy 1: not shown heavy 2: not shown light: DIVMTQSPLSLPVTPGEPASISCQASESLVHSNRNTYLHWYLQKPGQSPQLLIYKVSNRFSGVPDRFSGSGSGTDFTLKISRVEAEDVGVYYCSQNTHVPPTFGQGTKVEIERTVAAPSVFIFPPSDEQLKSGTASVVCLLNNFYPREAKVQWKVDNALQSGNSQESVTEQDSKDSTYSLSSTLTLSKADYEKHKVYACEVTHQGLSSPVTKSFNRGEC | 1.22 | 69.4% | 56.9%
GpH7-A5/GpH7-B3 variant P271_20W/GpL16-k0 (antibody, human IgG1, kappa, Heterodimerized anti-glypican-3 IgG1 (He Ab); mutation in the B3 H chain only; also called He Ab) heavy 1: not shown heavy 2: not shown light: DIVMTQSPLSLPVTPGEPASISCQASESLVHSNRNTYLHWYLQKPGQSPQLLIYKVSNRFSGVPDRFSGSGSGTDFTLKISRVEAEDVGVYYCSQNTHVPPTFGQGTKVEIERTVAAPSVFIFPPSDEQLKSGTASVVCLLNNFYPREAKVQWKVDNALQSGNSQESVTEQDSKDSTYSLSSTLTLSKADYEKHKVYACEVTHQGLSSPVTKSFNRGEC | 1.33 | 77.4% | 58.1%
GpH7-A5/GpH7-B3 variant E269_19Q/GpL16-k0 (antibody, human IgG1, kappa, Heterodimerized anti-glypican-3 IgG1 (He Ab); mutation in the B3 H chain only; also called He Ab) heavy 1: not shown heavy 2: not shown light: DIVMTQSPLSLPVTPGEPASISCQASESLVHSNRNTYLHWYLQKPGQSPQLLIYKVSNRFSGVPDRFSGSGSGTDFTLKISRVEAEDVGVYYCSQNTHVPPTFGQGTKVEIERTVAAPSVFIFPPSDEQLKSGTASVVCLLNNFYPREAKVQWKVDNALQSGNSQESVTEQDSKDSTYSLSSTLTLSKADYEKHKVYACEVTHQGLSSPVTKSFNRGEC | 1.81 | 80.2% | 44.3%
GpH7-A5/GpH7-B3 variant Q295_12R/GpL16-k0 (antibody, human IgG1, kappa, Heterodimerized anti-glypican-3 IgG1 (He Ab); mutation in the B3 H chain only; also called He Ab) heavy 1: not shown heavy 2: not shown light: DIVMTQSPLSLPVTPGEPASISCQASESLVHSNRNTYLHWYLQKPGQSPQLLIYKVSNRFSGVPDRFSGSGSGTDFTLKISRVEAEDVGVYYCSQNTHVPPTFGQGTKVEIERTVAAPSVFIFPPSDEQLKSGTASVVCLLNNFYPREAKVQWKVDNALQSGNSQESVTEQDSKDSTYSLSSTLTLSKADYEKHKVYACEVTHQGLSSPVTKSFNRGEC | 1.29 | 84.1% | 65.2%
GpH7-A5/GpH7-B3 variant S298_07I/GpL16-k0 (antibody, human IgG1, kappa, Heterodimerized anti-glypican-3 IgG1 (He Ab); mutation in the B3 H chain only; also called He Ab) heavy 1: not shown heavy 2: not shown light: DIVMTQSPLSLPVTPGEPASISCQASESLVHSNRNTYLHWYLQKPGQSPQLLIYKVSNRFSGVPDRFSGSGSGTDFTLKISRVEAEDVGVYYCSQNTHVPPTFGQGTKVEIERTVAAPSVFIFPPSDEQLKSGTASVVCLLNNFYPREAKVQWKVDNALQSGNSQESVTEQDSKDSTYSLSSTLTLSKADYEKHKVYACEVTHQGLSSPVTKSFNRGEC | 1.23 | 86.9% | 70.6%
GpH7-A5/GpH7-B3 variant P271_15Y/GpL16-k0 (antibody, human IgG1, kappa, Heterodimerized anti-glypican-3 IgG1 (He Ab); mutation in the B3 H chain only; also called He Ab) heavy 1: not shown heavy 2: not shown light: DIVMTQSPLSLPVTPGEPASISCQASESLVHSNRNTYLHWYLQKPGQSPQLLIYKVSNRFSGVPDRFSGSGSGTDFTLKISRVEAEDVGVYYCSQNTHVPPTFGQGTKVEIERTVAAPSVFIFPPSDEQLKSGTASVVCLLNNFYPREAKVQWKVDNALQSGNSQESVTEQDSKDSTYSLSSTLTLSKADYEKHKVYACEVTHQGLSSPVTKSFNRGEC | 1.24 | 64.6% | 52.3%
GpH7-A5/GpH7-B3 variant E269_20W/GpL16-k0 (antibody, human IgG1, kappa, Heterodimerized anti-glypican-3 IgG1 (He Ab); mutation in the B3 H chain only; also called He Ab) heavy 1: not shown heavy 2: not shown light: DIVMTQSPLSLPVTPGEPASISCQASESLVHSNRNTYLHWYLQKPGQSPQLLIYKVSNRFSGVPDRFSGSGSGTDFTLKISRVEAEDVGVYYCSQNTHVPPTFGQGTKVEIERTVAAPSVFIFPPSDEQLKSGTASVVCLLNNFYPREAKVQWKVDNALQSGNSQESVTEQDSKDSTYSLSSTLTLSKADYEKHKVYACEVTHQGLSSPVTKSFNRGEC | 1.43 | 60.9% | 42.5%
GpH7-A5/GpH7-B3 variant Q295_16H/GpL16-k0 (antibody, human IgG1, kappa, Heterodimerized anti-glypican-3 IgG1 (He Ab); mutation in the B3 H chain only; also called He Ab) heavy 1: not shown heavy 2: not shown light: DIVMTQSPLSLPVTPGEPASISCQASESLVHSNRNTYLHWYLQKPGQSPQLLIYKVSNRFSGVPDRFSGSGSGTDFTLKISRVEAEDVGVYYCSQNTHVPPTFGQGTKVEIERTVAAPSVFIFPPSDEQLKSGTASVVCLLNNFYPREAKVQWKVDNALQSGNSQESVTEQDSKDSTYSLSSTLTLSKADYEKHKVYACEVTHQGLSSPVTKSFNRGEC | 1.25 | 78.6% | 62.7%
GpH7-A5/GpH7-B3 variant Q295_03V/GpL16-k0 (antibody, human IgG1, kappa, Heterodimerized anti-glypican-3 IgG1 (He Ab); mutation in the B3 H chain only; also called He Ab) heavy 1: not shown heavy 2: not shown light: DIVMTQSPLSLPVTPGEPASISCQASESLVHSNRNTYLHWYLQKPGQSPQLLIYKVSNRFSGVPDRFSGSGSGTDFTLKISRVEAEDVGVYYCSQNTHVPPTFGQGTKVEIERTVAAPSVFIFPPSDEQLKSGTASVVCLLNNFYPREAKVQWKVDNALQSGNSQESVTEQDSKDSTYSLSSTLTLSKADYEKHKVYACEVTHQGLSSPVTKSFNRGEC | 1.22 | 92% | 75.7%
GpH7-A5/GpH7-B3 variant Q295_20W/GpL16-k0 (antibody, human IgG1, kappa, Heterodimerized anti-glypican-3 IgG1 (He Ab); mutation in the B3 H chain only; also called He Ab) heavy 1: not shown heavy 2: not shown light: DIVMTQSPLSLPVTPGEPASISCQASESLVHSNRNTYLHWYLQKPGQSPQLLIYKVSNRFSGVPDRFSGSGSGTDFTLKISRVEAEDVGVYYCSQNTHVPPTFGQGTKVEIERTVAAPSVFIFPPSDEQLKSGTASVVCLLNNFYPREAKVQWKVDNALQSGNSQESVTEQDSKDSTYSLSSTLTLSKADYEKHKVYACEVTHQGLSSPVTKSFNRGEC | 1.25 | 55.6% | 44.4%
GpH7-A5/GpH7-B3 variant Q295_07I/GpL16-k0 (antibody, human IgG1, kappa, Heterodimerized anti-glypican-3 IgG1 (He Ab); mutation in the B3 H chain only; also called He Ab) heavy 1: not shown heavy 2: not shown light: DIVMTQSPLSLPVTPGEPASISCQASESLVHSNRNTYLHWYLQKPGQSPQLLIYKVSNRFSGVPDRFSGSGSGTDFTLKISRVEAEDVGVYYCSQNTHVPPTFGQGTKVEIERTVAAPSVFIFPPSDEQLKSGTASVVCLLNNFYPREAKVQWKVDNALQSGNSQESVTEQDSKDSTYSLSSTLTLSKADYEKHKVYACEVTHQGLSSPVTKSFNRGEC | 1.21 | 102% | 84.3%
GpH7-A5/GpH7-B3 variant S298_03V/GpL16-k0 (antibody, human IgG1, kappa, Heterodimerized anti-glypican-3 IgG1 (He Ab); mutation in the B3 H chain only; also called He Ab) heavy 1: not shown heavy 2: not shown light: DIVMTQSPLSLPVTPGEPASISCQASESLVHSNRNTYLHWYLQKPGQSPQLLIYKVSNRFSGVPDRFSGSGSGTDFTLKISRVEAEDVGVYYCSQNTHVPPTFGQGTKVEIERTVAAPSVFIFPPSDEQLKSGTASVVCLLNNFYPREAKVQWKVDNALQSGNSQESVTEQDSKDSTYSLSSTLTLSKADYEKHKVYACEVTHQGLSSPVTKSFNRGEC | 1.32 | 85.1% | 64.5%
GpH7-A5/GpH7-B3 variant Q295_11K/GpL16-k0 (antibody, human IgG1, kappa, Heterodimerized anti-glypican-3 IgG1 (He Ab); mutation in the B3 H chain only; also called He Ab) heavy 1: not shown heavy 2: not shown light: DIVMTQSPLSLPVTPGEPASISCQASESLVHSNRNTYLHWYLQKPGQSPQLLIYKVSNRFSGVPDRFSGSGSGTDFTLKISRVEAEDVGVYYCSQNTHVPPTFGQGTKVEIERTVAAPSVFIFPPSDEQLKSGTASVVCLLNNFYPREAKVQWKVDNALQSGNSQESVTEQDSKDSTYSLSSTLTLSKADYEKHKVYACEVTHQGLSSPVTKSFNRGEC | 1.27 | 89.4% | 70.4%
GpH7-A5/GpH7-B3 variant Q295_05P/GpL16-k0 (antibody, human IgG1, kappa, Heterodimerized anti-glypican-3 IgG1 (He Ab); mutation in the B3 H chain only; also called He Ab) heavy 1: not shown heavy 2: not shown light: DIVMTQSPLSLPVTPGEPASISCQASESLVHSNRNTYLHWYLQKPGQSPQLLIYKVSNRFSGVPDRFSGSGSGTDFTLKISRVEAEDVGVYYCSQNTHVPPTFGQGTKVEIERTVAAPSVFIFPPSDEQLKSGTASVVCLLNNFYPREAKVQWKVDNALQSGNSQESVTEQDSKDSTYSLSSTLTLSKADYEKHKVYACEVTHQGLSSPVTKSFNRGEC | 1.53 | 103% | 67.5%
